In PMC3313952, “Multicopper Oxidase-3 Is a Laccase Associated with the Peritrophic Matrix of Anopheles gambiae” (PLoS ONE, 2012):

Columns and labels:
Assay in all cases: spectrophotometric product formation, Michaelis-Menten fit
Assay type in all cases: biochemical, Anopheles gambiae
[1] = substrate: N[C@@H](Cc1ccc(O)c(O)c1)C(=O)O; conditions: pH 7.5, 0.1 M sodium phosphate; pH 7.5
Description: (§1) spectrophotometric product formation, Michaelis-Menten fit on AgMCO3

[2] = substrate: CC(=O)NCCc1ccc(O)c(O)c1; conditions: pH 7.5, 0.1 M sodium phosphate; pH 7.5
Description: as §1

[3] = substrate: NCCC(=O)NCCc1ccc(O)c(O)c1; conditions: pH 7.0, 0.1 M sodium phosphate; pH 7.0
Description: as §1

[4] = substrate: Oc1ccccc1O; conditions: pH 7.0, 0.1 M sodium phosphate; pH 7.0
Description: as §1

[5] = substrate: Oc1ccc(O)cc1; conditions: pH 6.5, 0.1 M Mes; pH 6.5
Description: as §1

[6] = substrate: CCn1c(=NN=c2sc3cc(S(=O)(=O)O)ccc3n2CC)sc2cc(S(=O)(=O)O)ccc21; conditions: pH 6.0, 0.1 M Mes; pH 6.0
Description: as §1

[7] = substrate: NCCc1ccc(O)c(O)c1; conditions: pH 7.5, 0.1 M sodium phosphate; pH 7.5
Description: as §1

B1: AgMCO3 (Anopheles gambiae) (protein)
chain: QSWLNTLLEQSNGTLDVSTFPGEQCLRECDNTQPRICHFSWTMEHYHVMGPACRDCAKGNHTDCYHPACITADGVERGVMSLNRKIPGPTISVCRHDLIVVDITNAMAGTSAAIHWHGLHQRATPYMDGVPFITQCPIGFGNTFRYAFLATEPGTQFYHSHSGHHKVNGHYGALIVREPKRVDPNGDLYHYDTPAHVILGSDWMHIDGEMFMPGLPSAGGIMPINLLINGKGTYHDPKKNETTQTPLEVYTVRRGARFRFRFINAASHVCPLQLQIEDHMMEVIASDSFHLQPRKVDTLVSTSGERYDFVLEANGVKDTYWVRLRSLGPCADLQLEQFAVLRYTTGPFINDAFPTGAPPTYEEPFRNVATANHPNATCGRPEFGDYCITDFQAYDTDEDVINGVPDHQLTFGFYNYPVSFESMFESNRYEHYMNIYGSVMMQGAINNISLAYPPFSLLTQPEKIRDDTFCDEDNRPDSCSDRQLCTCTHRVKINLGDIVELYILDLTPSVNDLNHPFHLHGYQMFVMEMSQDRRVPITLEIAQNIARQRLLSRNTVALPPRKDTVSIPSRGYARVRFRADNPGFWLMHCHYEWHTAVGMALVLQVGETSEMVKAPADFPKCDSYTPAVGHLLQGSL
notes: no tag mentioned; baculovirus / Sf9 host; cDNA identical to EF592176.2 except Leu instead of Pro at residue 15 in signal peptide (probable GenBank error)
Km [1]: 1400 µM | kcat [1]: 1.55 s⁻¹ | kcat/Km [1]: 1100 M⁻¹ s⁻¹ | Km [2]: 1000 µM | kcat [2]: 2.58 s⁻¹ | kcat/Km [2]: 2580 M⁻¹ s⁻¹ | Km [3]: 2200 µM | kcat [3]: 11.8 s⁻¹ | kcat/Km [3]: 5380 M⁻¹ s⁻¹ | Km [4]: 2100 µM | kcat [4]: 5.1 s⁻¹ | kcat/Km [4]: 2430 M⁻¹ s⁻¹ | Km [5]: 5200 µM | kcat [5]: 26.2 s⁻¹ | kcat/Km [5]: 5030 M⁻¹ s⁻¹ | Km [6]: 8500 µM | kcat [6]: 2.6 s⁻¹ | kcat/Km [6]: 300 M⁻¹ s⁻¹ | Km [7]: 1600 µM | kcat [7]: 4.57 s⁻¹ | kcat/Km [7]: 2850 M⁻¹ s⁻¹
